From publication PMC2814540

Biological target: Human EGFR JM-kinase construct (JM-A and JM-B, residues 645-998) (human)
Assay: static light scattering

- stoichiometry N: 2
Substance: Human EGFR JM-kinase construct (JM-A and JM-B, residues 645-998) (domain or fragment)
